Data: US20230159645A1 (MERUS N V, published 2023)

How the values were obtained:
human TGF-βRII [1] = biological target: T1, human TGF-βRII (human, UniProt P37173 23-567); experiment: cell-based or functional assay
T1 chain: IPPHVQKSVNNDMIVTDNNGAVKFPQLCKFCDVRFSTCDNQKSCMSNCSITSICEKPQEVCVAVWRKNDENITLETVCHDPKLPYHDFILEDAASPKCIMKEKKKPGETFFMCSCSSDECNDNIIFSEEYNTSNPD

human TGF-βRII [2] = biological target: T1, human TGF-βRII; experiment: cell-based or functional assay

B1: Reference TGF-βRII antibody TGF1 analog (antibody, human IgG1, kappa, V domains shown)
VH: QLQVQESGPGLVKPSETLSLTCTVSGGSISNSYFSWGWIRQPPGKGLEWIGSFYYGEKTYYNPSLKSRATISIDTSKSQFSLKLSSVTAADTAVYYCPRGPTMIRGVIDSWGQGTLVTVSS
VL: EIVLTQSPATLSLSPGERATLSCRASQSVRSYLAWYQQKPGQAPRLLIYDASNRATGIPARFSGSGSGTDFTLTISSLEPEDFAVYYCQQRSNWPPTFGQGTKVEIKR
Fold difference pSMAD PD-1^null vs PD-1^+ (human TGF-βRII [1]): 1.3 fold | HEK-BLUE-PD-1 TGF-β Reporter Assay, HEK-Blue TGF-β cells (human TGF-βRII [2]): 0.806 | HEK-BLUE-PD-1 TGF-β Reporter Assay, HEK-Blue TGF-β-PD-1+ cells (human TGF-βRII [2]): 0.655
